These results are taken from PMC6071684, “Defining the hydrophobic interactions that drive competence stimulating peptide (CSP)-ComD binding in Streptococcus pneumoniae” (Beilstein Journal of Organic Chemistry, 2018).

The target in one assay is ComD2 receptor (Streptococcus pneumoniae serotype 4, UniProt A0A0H2US84). The assay can be described thus: cell-based. Particulars: for ComD2 primary agonism screening: low induction, EC50 not determined: TIGR4pcomX::lacZ, 10 µM peptide, only analogs with greater than 75% activation compared to CSP2 were taken to EC50. The method, then:
(§1) To assess QS modulation, we utilized the β-gal reporter strains, constructed by Lau and co-worker. In these strains the lacZ gene is under the control of QS (pcomX). Thus, upon QS activation, ComE will bind pcomX and transcribe lacZ (in addition to upregulation of ComX). ComD modulation can therefore be quantified by measuring β-gal activity. The peptides were first screened for their ability to activate/inhibit the ComD1 and ComD2 receptors at high concentration (10 µM).
(§2) To examine the ability of the synthesized CSP analogs to modulate the ComD receptors, and thus the QS circuit in S. pneumoniae, β-galactosidase assays were performed using D39pcomX::lacZ (group I) and TIGR4pcomX::lacZ (group II) reporter strains as described in [19].
(§3) Bacterial growth conditions. Bacteria from a freezer stock were grown as described in [19]. Briefly, the bacteria were streaked into a THY agar plate supplemented with 5% donor horse serum and chloramphenicol at a final concentration of 4 µg/mL. The plate was incubated for 8 h in a CO2 incubator (37 °C with 5% CO2). Fresh colonies (single colony for D39pcomX::lacZ; multiple colonies for TIGR4pcomX::lacZ) were picked into sterilized cultural tubes containing 5 mL of THY broth supplemented with chloramphenicol at a final concentration of 4 µg/mL and the cultures were incubated in a CO2 incubator overnight (15 h). Overnight cultures were then diluted (1:50 for D39pcomX::lacZ; 1:10 for TIGR4pcomX::lacZ) with THY and the resulting solution was incubated in a CO2 incubator for 3–4 hours, until the bacteria reached early exponential stage (0.30–0.35 for D39pcomX::lacZ; 0.20–0.25 for TIGR4pcomX::lacZ) as determined by using a plate reader.
(§4) β-Galactosidase assay. Activation assays. […] Briefly, an initial activation screening was performed at high concentration (10 µM) for all CSP analogs. 2 µL of 1 mM solution of CSP analogs in dimethyl sulfoxide (DMSO) were added in triplicate to a clear 96-well microtiter plate. […] 2 µL of DMSO was added in triplicate and served as the negative control for both groups. Then, 198 µL of bacterial culture was added to each well containing CSP and analogs, the plate was incubated at 37 °C for 30 minutes, and the OD600nm was measured. In order to measure the β-galactosidase activity in the pneumococcal culture, the cells were lysed by incubating the culture for 30 minutes at 37 °C with 20 µL of 0.1% Triton X-100. In a new plate, 100 µL of Z-buffer solution (60.2 mM Na2HPO4, 45.8 mM NaH2PO4, 10 mM KCl, and 1.0 mM MgSO4 in 18 MΩ H2O; pH was adjusted to 7.0 and the buffer was sterilized before use) containing 2-nitrophenyl-β-D-galactopyranoside (ONPG) at a final concentration of 0.4 mg/mL was added, followed by 100 µL of lysate, and the plate was incubated for 3 hours at 37 °C. The reaction was stopped by adding 50 µL of 1 M sodium carbonate solution, and the OD420nm and OD550nm were measured using a plate reader. […] For calculation of Miller units, please see data analysis below.
(§5) Analysis of activation/inhibition data. Miller units were calculated using the following formula: […]
(§6) Abs420 is the absorbance of ortho-nitrophenol (ONP). Abs550 is the scatter from cell debris, which, when multiplied by 1.75 approximates the scatter observed at 420 nm. t is the duration of incubation with ONPG in minutes, v is volume of lysate in milliliters, and Abs600 reflects cell density.

Another assay deals with ComD1 receptor (Streptococcus pneumoniae serotype 2, UniProt A0A0H2ZM50). The assay can be described thus: cell-based. How it is done: as §1, §2, §3, §4, §5, §6
Assay [1] has as its target ComD1 receptor (S. pneumoniae (endogenous in D39pcomX::lacZ)).
Assay [2] has as its target ComD2 receptor (S. pneumoniae (endogenous in TIGR4pcomX::lacZ)).

Where a SMILES comes first, the peptide text is derived from it. Where no end group is shown, it is not given here. [ ]: non-standard residue; d: D form. Nva = CCC[C@H](N)C(=O)O

Chain of ComD1 receptor (A0A0H2ZM50 entry or part of it): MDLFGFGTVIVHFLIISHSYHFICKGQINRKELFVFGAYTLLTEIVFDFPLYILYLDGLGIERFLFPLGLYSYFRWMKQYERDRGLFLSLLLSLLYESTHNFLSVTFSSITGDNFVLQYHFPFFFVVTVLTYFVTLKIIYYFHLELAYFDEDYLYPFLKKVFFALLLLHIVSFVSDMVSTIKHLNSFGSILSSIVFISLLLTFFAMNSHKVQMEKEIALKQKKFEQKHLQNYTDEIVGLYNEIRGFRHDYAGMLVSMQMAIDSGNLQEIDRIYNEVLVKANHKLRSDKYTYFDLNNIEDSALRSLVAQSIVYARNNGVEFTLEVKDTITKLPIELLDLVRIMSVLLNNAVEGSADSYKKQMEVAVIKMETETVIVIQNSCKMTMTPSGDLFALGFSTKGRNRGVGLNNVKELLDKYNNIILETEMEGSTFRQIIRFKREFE
Chain of ComD2 receptor (A0A0H2US84 entry or part of it): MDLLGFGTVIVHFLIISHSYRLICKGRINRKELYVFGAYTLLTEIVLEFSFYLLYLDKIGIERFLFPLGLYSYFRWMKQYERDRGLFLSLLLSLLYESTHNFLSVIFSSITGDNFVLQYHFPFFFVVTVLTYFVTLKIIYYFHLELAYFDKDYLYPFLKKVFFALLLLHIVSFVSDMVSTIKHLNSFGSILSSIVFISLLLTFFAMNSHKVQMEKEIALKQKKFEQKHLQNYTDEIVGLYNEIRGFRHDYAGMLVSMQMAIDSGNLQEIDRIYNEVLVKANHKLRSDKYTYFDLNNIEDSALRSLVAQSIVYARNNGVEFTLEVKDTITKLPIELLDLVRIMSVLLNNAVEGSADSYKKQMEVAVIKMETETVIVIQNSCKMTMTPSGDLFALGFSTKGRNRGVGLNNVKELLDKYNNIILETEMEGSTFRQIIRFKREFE

What is called EC50 is the concentration at which the effect is half-maximal. High values mean lower potency in that assay, low ones higher potency in that assay. For the molecule `CCCC[C@H](NC(=O)[C@@H](NC(=O)[C@H](Cc1ccccc1)NC(=O)[C@H](CC(=O)O)NC(=O)[C@H](CCCNC(=N)N)NC(=O)[C@H](Cc1ccccc1)NC(=O)[C@H](Cc1ccccc1)NC(=O)[C@H](CCCCN)NC(=O)[C@H](CO)NC(=O)[C@H](CC(C)C)NC(=O)[C@H](CCCNC(=N)N)NC(=O)[C@H](CCSC)NC(=O)[C@@H](N)CCC(=O)O)[C@@H](C)CC)C(=O)N[C@@H](CCC(N)=O)C(=O)N[C@@H](CCCNC(=N)N)C(=O)N[C@@H](CCCCN)C(=O)N[C@@H](CCCCN)C(=O)O` [CSP1-L13NL], the EC50 on ComD2 receptor is above 1000 nM; on ComD1 receptor, 18.6 nM.

For `CCC[C@H](NC(=O)[C@@H](NC(=O)[C@H](Cc1ccccc1)NC(=O)[C@H](CC(=O)O)NC(=O)[C@H](CCCNC(=N)N)NC(=O)[C@H](Cc1ccccc1)NC(=O)[C@H](Cc1ccccc1)NC(=O)[C@H](CCCCN)NC(=O)[C@H](CO)NC(=O)[C@H](CC(C)C)NC(=O)[C@H](CCCNC(=N)N)NC(=O)[C@H](CCSC)NC(=O)[C@@H](N)CCC(=O)O)[C@@H](C)CC)C(=O)N[C@@H](CCC(N)=O)C(=O)N[C@@H](CCCNC(=N)N)C(=O)N[C@@H](CCCCN)C(=O)N[C@@H](CCCCN)C(=O)O` [CSP1-L13NV] (H-EMRLSKFFRDFI[Nva]QRKK-OH; N-terminus assumed), the values for the EC50 on ComD2 receptor and on ComD1 receptor were above 1000 nM and 15.2 nM, respectively.

CSP1-F7HF (peptide): in assay [1], the EC50 of activation of pcomX::lacZ (β-galactosidase) in reporter strain D39pcomX::lacZ (group I, ComD1) worked out at 81.7 nM. Further, the EC50 of activation of pcomX::lacZ (β-galactosidase) in reporter strain TIGR4pcomX::lacZ (group II, ComD2) in assay [2] is 317 nM.

In turn, CSP1-F8HF (peptide) gave an EC50 of activation of pcomX::lacZ (β-galactosidase) in reporter strain D39pcomX::lacZ (group I, ComD1) in assay [1] of 43.4 nM. In assay [2], this molecule showed an EC50 of activation of pcomX::lacZ (β-galactosidase) in reporter strain TIGR4pcomX::lacZ (group II, ComD2) above 1000 nM.

Molecule CSP1-I12L (peptide) came in with an EC50 of activation of pcomX::lacZ (β-galactosidase) in reporter strain D39pcomX::lacZ (group I, ComD1) in assay [1] of 8.56 nM. Besides, the EC50 of activation of pcomX::lacZ (β-galactosidase) in reporter strain TIGR4pcomX::lacZ (group II, ComD2) in assay [2] was 537 nM.

Molecule CSP1-I12NL (peptide) returned an EC50 of activation of pcomX::lacZ (β-galactosidase) in reporter strain D39pcomX::lacZ (group I, ComD1) in assay [1] of 6.68 nM. The molecule also displayed an EC50 of activation of pcomX::lacZ (β-galactosidase) in reporter strain TIGR4pcomX::lacZ (group II, ComD2) in assay [2] above 1000 nM.

CSP1-I12NV (peptide): in assay [1], the EC50 of activation of pcomX::lacZ (β-galactosidase) in reporter strain D39pcomX::lacZ (group I, ComD1) came out at 13.8 nM. In assay [2], the EC50 of activation of pcomX::lacZ (β-galactosidase) in reporter strain TIGR4pcomX::lacZ (group II, ComD2) amounted to 853 nM.

As for CSP1-L4I (peptide), in assay [1], the EC50 of activation of pcomX::lacZ (β-galactosidase) in reporter strain D39pcomX::lacZ (group I, ComD1) was found to be 10.2 nM. For the same molecule, the EC50 of activation of pcomX::lacZ (β-galactosidase) in reporter strain TIGR4pcomX::lacZ (group II, ComD2) in assay [2] is above 1000 nM.

CSP1-L4NL (peptide) had an EC50 of activation of pcomX::lacZ (β-galactosidase) in reporter strain D39pcomX::lacZ (group I, ComD1) in assay [1] of 13.5 nM. This molecule displayed an EC50 of activation of pcomX::lacZ (β-galactosidase) in reporter strain TIGR4pcomX::lacZ (group II, ComD2) in assay [2] above 1000 nM.

Take CSP1-L4NV (peptide): the EC50 of activation of pcomX::lacZ (β-galactosidase) in reporter strain D39pcomX::lacZ (group I, ComD1) in assay [1] came to 5.74 nM. Also, the EC50 of activation of pcomX::lacZ (β-galactosidase) in reporter strain TIGR4pcomX::lacZ (group II, ComD2) in assay [2] is 627 nM.

In assay [1], CSP1-L13I (peptide) came in with an EC50 of activation of pcomX::lacZ (β-galactosidase) in reporter strain D39pcomX::lacZ (group I, ComD1) of 9.12 nM. In addition, the EC50 of activation of pcomX::lacZ (β-galactosidase) in reporter strain TIGR4pcomX::lacZ (group II, ComD2) in assay [2] stood at 705 nM.

Consider CSP1-L13NL (peptide), for which, in assay [1], the EC50 of activation of pcomX::lacZ (β-galactosidase) in reporter strain D39pcomX::lacZ (group I, ComD1) came out at 18.6 nM. Moreover, the EC50 of activation of pcomX::lacZ (β-galactosidase) in reporter strain TIGR4pcomX::lacZ (group II, ComD2) in assay [2] is above 1000 nM.

In turn, CSP1-L13NV (peptide) had an EC50 of activation of pcomX::lacZ (β-galactosidase) in reporter strain D39pcomX::lacZ (group I, ComD1) in assay [1] of 15.2 nM. In addition, in assay [2], the EC50 of activation of pcomX::lacZ (β-galactosidase) in reporter strain TIGR4pcomX::lacZ (group II, ComD2) is above 1000 nM.

For the molecule EMRISKFFRDFILQRKK-OH [CSP1-L4I], the results for the EC50 on ComD2 receptor and at ComD1 receptor were above 1000 nM and 10.2 nM, respectively.

With EMRLSKFYRDFILQRKK-OH [CSP1-F8Y], the “ComD2 primary agonism screening: low induction, EC50 not determined” value at ComD2 receptor is recorded as “–^e”. In addition, the EC50 at ComD1 receptor is 85 nM.

Turning to EMRLSKYFRDFILQRKK-OH [CSP1-F7Y], the “ComD2 primary agonism screening: low induction, EC50 not determined” value at ComD2 receptor is “–^e”. The midpoint of the response on ComD1 receptor, the EC50, lay at 344 nM.

Regarding EMRVSKFFRDFILQRKK-OH [CSP1-L4V], the “ComD2 primary agonism screening: low induction, EC50 not determined” value on ComD2 receptor is listed as “–^e”. At ComD1 receptor, this molecule displayed an EC50 of 113 nM.
